Usually EC50 (read off the curve) stands for the concentration that produces a half-maximal response. What is called Kd is the constant that tells how readily two partners part at equilibrium. As usually defined, the koff is the rate constant with which the complex falls apart. Usually kon stands for the second-order rate constant of association. A word on the IC50: it is the midpoint of a concentration-inhibition curve.

Consider six molecules from patent publication US20150183871A1 (AbbVie / Abbott, published 2015).

Test [1] addresses T1, recombinant purified human RGM A (human, UniProt Q96B86 48-424, limits assumed).
T1 construct: Bought recombinant protein (R&D Systems); also called hRGM A; hRGMA
T1 sequence: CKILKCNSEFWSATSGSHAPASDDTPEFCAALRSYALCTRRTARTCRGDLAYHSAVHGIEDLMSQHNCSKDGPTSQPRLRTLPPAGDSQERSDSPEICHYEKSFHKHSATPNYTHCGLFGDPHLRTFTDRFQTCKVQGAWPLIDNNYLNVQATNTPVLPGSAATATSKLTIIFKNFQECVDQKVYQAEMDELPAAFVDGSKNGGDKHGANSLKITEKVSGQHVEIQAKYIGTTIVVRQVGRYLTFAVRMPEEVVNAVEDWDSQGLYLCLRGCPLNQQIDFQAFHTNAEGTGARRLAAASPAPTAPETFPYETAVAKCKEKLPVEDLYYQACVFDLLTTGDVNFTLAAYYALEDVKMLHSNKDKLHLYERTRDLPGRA
The test can be described thus: direct ELISA, plate coated with hRGM A at 2 µg/ml, biotinylated antibody in 1:5 dilution steps, streptavidin-HRP, OD 450 nm. The method, then:
(i) Direct binding ELISA plates were coated with hRGM A (R&D) at a concentration of 2 μg/ml in Carbonate buffer. The wells were then blocked with 2% Blocking solution (Bio-Rad) for 1 hour at room temperature. Biotinylated antibodies were serially diluted with a 1:5 dilution factor in 0.1% BSNPBS down the plate and incubated for 1 hour at room temperature. The detection reagent was a 1:10,000 dilution of streptavidin-HRP in 0.1% BSNPBS. Detection was done with a TMB reagent, which was stopped with 2N H₂SO₄ and OD was read at 450 nm.
FAGS was carried out as described in section (ii).
(In general: An ELISA detects its analyte on a solid surface through an enzyme-linked reagent.)

The target in test [2] is T1, recombinant purified human RGM A. Put plainly: SPR (Biacore 3000), antibody captured by anti-human IgG Fc, hRGMA in solution, 25 °C. The method, then:
The BIACORE assay (Biacore, Inc, Piscataway, N.J.) determines the affinity of antibodies with kinetic measurements of on-, off-rate constants. Binding of antibodies to recombinant purified human RGMA was determined by surface plasmon resonance-based measurements with a Biacore® 3000 instrument (Biacore® AB, Uppsala, Sweden) using running HBS-EP (10 mM HEPES [pH 7.4], 150 mM NaCl, 3 mM EDTA, and 0.005% surfactant P20) at 25° C. All chemicals were obtained from Biacore® AB (Uppsala, Sweden). Approximately 5000 RU of goat anti-human IgG, (Fey), fragment specific polyclonal antibody (Pierce Biotechnology Inc, Rockford, Ill.) diluted in 10 mM sodium acetate (pH 4.5) was directly immobilized across a CM5 research grade biosensor chip using a standard amine coupling kit according to manufacturers instructions and procedures at 25 μg/ml. Unreacted moieties on the biosensor surface were blocked with ethanolamine. Modified carboxymethyl dextran surface in flowcell 2 and 4 was used as a reaction surface. Unmodified carboxymethyl dextran without goat anti-human IgG in flow cell 1 and 3 was used as the reference surface. Purified antibodies were diluted in HEPES-buffered saline for capture across goat anti-humanIgG specific reaction surfaces. Human antibodies to be captured as a ligand (25 μg/ml) were injected over reaction matrices at a flow rate of 5 μl/min. The association and dissociation rate constants, kₒₙ (unit M⁻¹s⁻¹) and koff (unit s⁻¹) were determined under a continuous flow rate of 25 μl/min. Rate constants were derived by making kinetic binding measurements at […] different antigen concentrations ranging from 0.39-50 nM. For kinetic analysis, rate equations derived from the 1:1 Langmuir binding model were fitted simultaneously to association and dissociation phases of all eight injections (using global fit analysis) with the use of Biaevaluation 4.0.1 software. The equilibrium dissociation constant (unit M) of the reaction between humanized antibodies and recombinant purified human RGMA was then calculated from the kinetic rate constants by the following formula: KD=koff/kₒₙ.
(In general: In SPR one partner is held on a chip, and binding of the other changes the refractive index at the surface.)

Test [3] has the same target. Put plainly: competition ELISA on coated hRGMA; competitor biotinylated chimeric 5F9. The method, then: ELISA plates (Costar 3369) were coated overnight at 4° c. with 50 μl/well of 0.25 μg/ml hRGMA in 0.2 M sodium carbonate-bicarbonate buffer, pH 9.4, washed with Wash Buffer (PBS containing 0.1% Tween 20), and blocked for 1 hr at room temperature with 200 μl/well of 2% nonfat dry milk in PBS. After washing with Wash Buffer, a mixture of a biotinylated chimeric 5F9 (0.1 IJg/ml final concentration) and unlabelled competitor test antibody starting at 50 IJg/ml final concentration and serially diluted 5-fold) in 50 μl/well of ELISA buffer was added in duplicate. After incubating the plates for 1 hr at room temperature, and washing with Wash Buffer, bound antibodies were detected using 100 μl/well of 1:10,000 dilution of HRP-conjugated streptavidin (Fitzgerald) in ELISA buffer. After incubating for 1 hr at room temperature, and washing with Wash Buffer, color development was performed by adding 100 μl/well of TMB Buffer (Zymed). After incubating for 15 min at room temperature, color development was stopped by adding 50 μl/well of 1 N hydrochloric acid. Absorbance was read at 490 nm.

B1: rat anti-human RGM A monoclonal antibody 5F9 (antibody, V domains shown)
VH: EVQLVESGGGLVQPGSSLKLSCVASGFTFSNYGMNWIRQAPKKGLEWIGMIYYDSSEKHYADSVKGRFTISRDNSKNTLYLEMNSLRSEDTAIYYCAKGTTPDYWGQGVMVTVSS
VL: DVVLTQTPVSLSVTLGDQASMSCRSSQSLEYSDGYTFLEWFLQKPGQSPQLLIYEVSNRFSGVPDRFIGSGSGTDFTLKISRVEPEDLGVYYCFQATHDPLTFGSGTKLEIKR
notes: Rat hybridoma antibody; also called ML69-5F9; MAB 5F9
Turning to B1, the half-maximal effective concentration (EC50 (read off the curve)) in test [1] is approximately 0.08 µg/mL.

B2: chimeric 5F9 (antibody, V domains shown)
VH: EVQLVESGGGLVQPGSSLKLSCVASGFTFSNYGMNWIRQAPKKGLEWIGMIYYDSSEKHYADSVKGRFTISRDNSKNTLYLEMNSLRSEDTAIYYCAKGTTPDYWGQGVMVTVSS
VL: DVVLTQTPVSLSVTLGDQASMSCRSSQSLEYSDGYTFLEWFLQKPGQSPQLLIYEVSNRFSGVPDRFIGSGSGTDFTLKISRVEPEDLGVYYCFQATHDPLTFGSGTKLEIKR
notes: also called chimeric human-rat 5F9; biotinylated chimeric 5F9
For the molecule B2, in test [2], the Kd is 3.09 nM, the koff came to 0.00236 s⁻¹ and the kon was determined as 765000 M⁻¹ s⁻¹.

B3: humanized antibody h5F9.24 (antibody, V domains shown)
VH: EVQLVESGGGLVQPGGSLRLSCAASGFTFSNYGMNWIRQAPGKGLEWIGMIYYDSSEKHYADSVKGRFTISRDNSKNTLYLQMNSLRAEDTAVYYCAKGTTPDYWGQGTMVTVSS
VL: DVVLTQSPLSLPVTLGQPASISCRSSQSLEYSDGYTFLEWFQQRPGQSPRRLIYEVSNRFSGVPDRFSGSGSGTDFTLKISRVEAEDVGVYYCFQATHDPLTFGQGTKLEIKR
B3: the IC50 in test [3] worked out at 1.32 µg/mL.

B4: humanized antibody h5F9.23 (antibody, V domains shown)
VH: EVQLVESGGGLVQPGGSLRLSCAASGFTFSNYGMNWIRQAPGKGLEWIGMIYYDSSEKHYADSVKGRFTISRDNSKNTLYLQMNSLRAEDTAVYYCAKGTTPDYWGQGTMVTVSS
VL: DVVLTQSPLSLPVTLGQPASISCRSSQSLEYSDGYTFLEWFQQRPGQSPRLLIYEVSNRFSGVPDRFSGSGSGTDFTLKISRVEAEDVGVYYCFQATHDPLTFGQGTKLEIKR
For the molecule B4, in test [3], the IC50 is 0.55 µg/mL. In addition, in test [2], the Kd turned out to be 4.37 nM, the koff stood at 0.00221 s⁻¹ and the kon is 507000 M⁻¹ s⁻¹.

B5: humanized antibody h5F9.25 (antibody, V domains shown)
VH: EVQLVESGGGLVQPGGSLRLSCAASGFTFSNYGMNWIRQAPGKGLEWIGMIYYDSSEKHYADSVKGRFTISRDNSKNTLYLQMNSLRAEDTAVYYCAKGTTPDYWGQGTMVTVSS
VL: DVVLTQSPLSLPVTLGQPASISCRSSQSLEYSDGYTFLEWFLQKPGQSPQLLIYEVSNRFSGVPDRFSGSGSGTDFTLKISRVEAEDVGVYYCFQATHDPLTFGQGTKLEIKR
For B5, the IC50 in test [3] turned out to be 0.66 µg/mL. For the same molecule, in test [2], the Kd is 5.78 nM, the koff was found to be 0.00329 s⁻¹ and the kon stood at 570000 M⁻¹ s⁻¹.

B6: humanized antibody h5F9.21 (antibody, V domains shown)
VH: EVQLVESGGGVVQPGRSLRLSCAASGFTFSNYGMNWIRQAPGKGLEWIGMIYYDSSEKHYADSVKGRFTISRDNSKNTLYLQMNSLRAEDTAVYYCAKGTTPDYWGQGTMVTVSS
VL: DVVLTQSPLSLPVTLGQPASISCRSSQSLEYSDGYTFLEWFLQKPGQSPQLLIYEVSNRFSGVPDRFSGSGSGTDFTLKISRVEAEDVGVYYCFQATHDPLTFGQGTKLEIKR
As to B6, the IC50 in test [3] stood at 0.6 µg/mL. In test [2], the Kd was determined as 7.59 nM, the koff was found to be 0.00269 s⁻¹ and the kon turned out to be 355000 M⁻¹ s⁻¹.
